In the DeepSol protein solubility set:

assay: soluble on expression in E. coli; label from the status in PepcDB or PDB records

With “KVQKIIVSEAGASVYSASELAAKEFPNMDVSLRGAVSIARRLQDPLAELVKIDPKSIGVGQYQHDVSQSMLVKRLDAIVEDCVNAVGVDVNTASAALLTRVAGLSSTIAQNIVDFRDENGRFEARTTLKKVPRLGPKAFEQCAGFLRIMDGKNPLDASAVHPEAYPVVKAIAEKNRKDIKALIGDSTFLKGLHAVDYTDEHFG” as the sequence, how does the “soluble on expression in E. coli” value read?
The value was “not soluble”.

With “MNQLNWKDVTPSFEQYEDILKSASSLPKKKFVELQPRLLATVERFKKIKGLTRVLVINCADNTVYRKFICDVVTDGLEPTIMTESLDAKLLFDRYSVDLKGDVVVEAGLLSKAN” as the sequence, how does the “soluble on expression in E. coli” value read?
The value was “not soluble”.

For “MPESIPQFYKRIQSCDLQSDTTYSKEKPYFNIFSRQCNFGTVQFSYREFYKVTLIIGVGKLYYADKWILVNRPALLFSNPLVPYAWESISEEQKGVFCIFNERFVQSEEKNGSLANTPLFKVTGDKVFFLDDTQVAKVLDIYTQMQEENQSDYVNKFDVLRCYLHLLIHTALKMQDSNRYESHLNASQRITELFIELLDRQFPIDYPHAVLNLRTPADYANRLSVHVNHLNKVIKDTTGKTTSEMIAERIIKECTQYLLHSNLSISEIAYSLGFETVSYFSKFYRKHTGKSPSEVRERTII”, which “soluble on expression in E. coli” value is on record?
Its value is “not soluble”.

For “MSFETISVIGLGYIGLPTAAAFASRKKKVIGVDVNAHAVETINRGAIHIVEPDLDKVVKIAVEGGYLQAVTKPQAADAFLIAVPTPFKGDHEPDMIFVESAAKSIAPVLKKGDLVILESTSPVGATEQMAQWLAEARPDLSFPQQAGEAADINIAYCPERVLPGQVMVELIQNDRVIGGMTPKCSARASALYKIFLEGECVVTNSRTAEMCKLTENSFRDVNIAFANELSLICDEQGINVWELIRLANRHPRVNILQPGPGVGGHCIAVDPWFIVSQNPQLARLIHTARLVNDGKPLWVVDRVKAAVADCLAASDKRASEVKIACFGLAFKPDIDDLRESPAVGVARLIAEWHVGETLVVEPNVEQLPKSLMGLVTLKDTATALQQADVLVMLVDHKQFKAIKPEDIKQQWIVDTKGVWR”, which “soluble on expression in E. coli” value is on record?
Its value is “not soluble”.

Which “soluble on expression in E. coli” value does the source give for “MQIITTTFIQKVILGSHQLHEQLSIVEARMIESAIVSMLTESFCENEQTLKYLARLLSPMSYMDVINARRGKKICGYPLCYKSAAENSSDGFFIHSMYCNNYHSKCSLYLMRQLSQTPLHERRGVHLTSYINLEFDDMYSVSLLEELVGSEVPIDTVKSLITSFKDLEFDDTYKNEPLPLDVYFGQLTTDEETCIE” here?
The value was “not soluble”.

With “MGSDKIHHHHHHMTQQTDLQSKTNIDPLAMNDSFLAAADALAVDPMFGIPANVREVIARRGNATRLVILGTKGFGAHLMNVRHERPCEVIAAVDDFRYHSGELYYGLPIISTDRFTELATHDRDLVALNTCRYDGPKRFFDQICRTHGIPHLNFEQAVRAFGLQGNVDYRVDDWGADIVRNIPAFQTLAQRLADDYSVQTLYAVLNFHLTCEPEYYHEVERPYSTLYFRSGLLRFSDSEKMVDCGASIGESLAGLIGVTKGKFERVWMIEPDRINLQTLQNVLRRYTDTNFASRITVHGCGAGENTIRVPFNHEGGHGGFVKPADADHEPADLIDVRPIDDIIDDAPTFIKMDIEGSELSALKGARRAISEHKPKLAISAYHRSTDLLDLTNYILSIRPDYQIGLRHHTPDRWDTCLYFY” as the sequence, how does the “soluble on expression in E. coli” value read?
Its value is “not soluble”.

With “MADFLTRFIREELSWRGYEKAIVAVSGGVDSATTLALAVRALGAERVHALFLPHRESSPTSREHAYLVAETFGVALEEVDITPMVEGYAALTPDLTPHRKGNVMARARMIVLFDKSEAYRALPLGTGNKTERLFGYFTWHGDDTPPVNPLGDLYKTQVWRLAEHLGVPEEVVRKPPTADLIPGQTDEADLGLRYLRADVILEHYLKGYSDQYILGLGFTEEELRRVKERVNRTHWKRALPTVALLSSTAIGEFYLRPLDYRP” as the sequence, how does the “soluble on expression in E. coli” value read?
Its value is “soluble”.

With “PSSAVGSGSEGFIVRLPAALLFKEGGIEVENSDGFLFVKRMAEIVNRLPKDVHVEVRGHTDTLPLPAQAPQDKLELTAKRALSVSKLLVKEGIDPKRITTVGRGDQDPLTHARTPEAQESNRRVDIYLYPKE” as the sequence, how does the “soluble on expression in E. coli” value read?
Its value is “soluble”.

For “MSLHDYCLPCPTSLSGIAEVNPMSKPLVRWPINPLRTAVIVVDMQKVFCEPTGALYVKSTADIVQPIQKLLQAARAAQVMVIYLRHIVRGDGSDTGRMRDLYPNVDQILARHDPDVEVIEALAPQSDDVIVDKLFYSGFHNTDLDTVLRARDVDTIIVCGTVTNVCCETTIRDGVHREYKVIALSDANAAMDYPDVGFGAVSAADVQRISLTTIAYEFGEVTTTAEVIRRIESAYPHGREGHHHHHH”, which “soluble on expression in E. coli” value is on record?
Its value is “soluble”.

Which “soluble on expression in E. coli” value does the source give for “MGHHHHHHGGHMSLENLNSYIKGHFADSILVKEQILKDENLITLIKNASLEVIKAYKNGNKTLLAGNGGSAADAQHIAGEFVSRFYFDRPGIASIALTTDTSILTAIGNDYGYENLFARQVQAQGVKGDVFIGISTSGNSKNILKALEFCKQKEIISIGLSGASGGAMNELCDYCIKVPSTCTPRIQEAHILIGHIICAIVEEELFGKGFSCKQEGGS” here?
Its value is “soluble”.

With “GKIILFEDVEFGGKKLELETSVSDLNVHGFNDIVSSIIVESGTWFVFDDEGFSGPSYKLTPGKYPNPGSWGGNDDELSSVKQQ” as the sequence, how does the “soluble on expression in E. coli” value read?
The value was “soluble”.

With “MGSDKIHHHHHHMEGIKMRSVVVKEPGQLNIESRPVPVPGAHEVRVKIAFAGICGSDVHIYHGHNPFAKYPRVIGHEFYGIIDAVGEQVSPARIGERVAVDPVVSCGHCYPCSVGRPNVCTQLQVIGVHRDGGFSDYACVPAKNAWRIPEAISDRQATMVEPFTIAANITAQLQPTAQDIALVYGAGPMGLTIIQALKGVYGVKQVIVVDRIAERLQMARENGADLTLDNTDQPLAEQLAQRQLAPTLVIDAACHPAILQEAILLASPAARIGILGFSGEASTLTQQSITSKEISIFSSRLNSGRFPLVIDWMEKGLIRPEALITHCMPLEQVKEAMEIFANDRKTCCKVLLQLG” as the sequence, how does the “soluble on expression in E. coli” value read?
The value was “not soluble”.

With “MGSDKIHHHHHHMNQSRLICFVALLFVLSGCQGKPVTIPEEDGPMVVVSHIKESTFSFISKNKMELLETEESPYPLTAMVDIEGGQIVVTSQTEDTLFLFDTVQGKILPFITLNKGLTVMEFDRAKRMLFVADTLNDEIIQIDVDKREVQTRIAIDCSPTDLQVIDDLLFILSSETSTVFIYDMRSETMIQSFSVTERPAGMFYDGSHLWIGGHGPYGDLNKRIFAYNIKTGVIDQEVEVGLMPITIYQDQHDTYVYVLCHGDDALYKVDLDAKRVEASLSVGHNPYYLKGDGDHLYVSNLDDDTFSIIERTTFQVVNEINVPAGPYAIVLEEEE” as the sequence, how does the “soluble on expression in E. coli” value read?
Its value is “not soluble”.

With “FGLETVSENELAHSEEELRIILSESYKSGEINQSEFKYVNKIFEFDDRLAKEIMIPRTEIVSLPHDIKISEMMDIIQIEKYTRYPVEEGDKDNIIGVINIKEVLTACISGEVSVDSTISQFVNPIIHVIESAPIQDLLVKMQKERVHMAILSDEYGGTAGLVTVEDIIEEIVGEIR” as the sequence, how does the “soluble on expression in E. coli” value read?
Its value is “soluble”.

With “MQPIEFLEGGCLCGAIRYRIEGNPFDADYCHCRMCQKSIGAAFGAWMDFNVSQVTWLKGNVTEFASSDFVRRGFCAQCGCSLTYRHTEYPDYLTLTIASFDDPNLVQPNYHIYTEQQLSWLKIEDNCQRYPQARTK” as the sequence, how does the “soluble on expression in E. coli” value read?
The value was “soluble”.

Which “soluble on expression in E. coli” value does the source give for “MRILIPFKANNPKSRLSSILSEEERKELARLMLLDVIDAAKPFGEIKVVCPSELDVEGVEVVVDTSDLNTTVNKVMDEAPLAVIMSDLPLLSEEVLKRFFETEGDVVVAPGRKGGTNMLLVRKRGFRVSYHFGSFFKHLEMARKMGMKAKIFDSFYSSVDIDDESDLLELMMHGSGKKSYEFLRKIGFSVSFEETPRLERRVFMQP” here?
Its value is “soluble”.

Which “soluble on expression in E. coli” value does the source give for “MSLKAFLHHLQNEAKLIISLTYCVDGEFALNEIARATLQQYGIVQLSSATNSDSETEAATSKAVKTAYDKAVEAKTTADGKVGLNGNESINGEKTFENRIVAKRNIRISDSPHYASRGDYLNIGANNGDCWFEYKLSNQEIGTLRMHANGDLTYKRQKIYLKMDCWQAIHKRKLKVFTAKRKKREGHHHHHH” here?
Its value is “not soluble”.

Which “soluble on expression in E. coli” value does the source give for “MGSDKIHHHHHHMVKGLYTAHTGMVNEMKRMDVLANNLANSDTYGFKKEGTTSHSFKNELAIKIKDTSNYGLHKNLGSMTYGVHLGETYTDWDEGSFKVTDNPTDLAIGGKGFFAVAFTDKSGQTSVKYTRDGAFKVNADGYLVTADGDHVLNATGALSGDGGEANWVKVDPNEKFSVNSLGYITQNNQLVGTIGVVDVDNYDYIEKYGENLYNLTAGGNIIASDAEIEQGALETSNVNVVNEMVLG” here?
Its value is “not soluble”.

Which “soluble on expression in E. coli” value does the source give for “MSDAMPLDQTLEQLTQDEWIDIPQGWSQGRTIYGGLVAGLLMHKALSVMNDESKNLLSTSITFVGPVNEGRVRLTVEILRQGKSVTTIEARLWQDQAVQTILIASFGQPRSSEIFVLEHHHHHH” here?
The value was “soluble”.

Which “soluble on expression in E. coli” value does the source give for “SAPAQEHPEATVLFSDIVGFTEIASRSSPLEVCSLLDELYQRFDAAIEEYPQLYKVETIGDAYMVVCNVTVPCDDHADVLLEFALRMHEEASRVASSLGEPVRIRVGMHSGPVVAGVVGRKMPRFCLFGDTVNTASRMESHGEAGQIHISEACYCCLRSKERFEIRERGNITVKGKGTMRTYLLSPLERT” here?
The value was “soluble”.

With “MSLTAPLRAGQMNFYDEPYNPVLNLHIQPSVKDENQRSTWPIIDTSNTSTQIARAHFEKHPPNNLRKSNFFHFVIALYDRNSQPIEVERTQFAGFVEKEKEVDGQDTRNGIHYRLSLMFQNGIRSEHDLFVRLIDSSTKQAITYEGQDKNPEMCRVLLTHEVMCSRCCEKKSCGNRNETPSDPVIIDRFFLKFFLKCNQNCLKNAGNPRDMRRFQVVLCSSARIDGPLLAVSDNMFVHNNSKHGRRTKRTDASDDSEYSESAELPSSVPVIKALFPSEGWIQGGTQVVLIGENFFEGLQVAFGTASPNWGESVQLISPHAIRVTTPPKHSAGPVDVTLQYKSKTYSRGTPLRFSYITLAEPGIEYGFQRLQKLLPKYPGDPERLPKDQILKRAAELAEALYNRTSTESLSSYYHTQFDATSDYAARTHTSPRSTLPYGAGPPALSSAVYQTSYPTVNATPAANFLNTQTGFATFGAVNPFAATLQSSSRLS” as the sequence, how does the “soluble on expression in E. coli” value read?
The value was “not soluble”.

For “MSLTQIENSQYRKHKQKQQHLQHSLTGESKTAIVVFSRSGNTATLSEHIAHKTNGHVYEIFAKSYALGIPGWINALKDARSNVAEIVPQHIDLSSYDTVYLGSPIWLYSPAPPFWQFVKDNDLTNKRVILFNSFNSKFEQHFIDEFAALARAKGATSFEHQYVKRGRMGDQLSTDEMLAAFDHLNPNEGHHHHHH”, which “soluble on expression in E. coli” value is on record?
Its value is “soluble”.

With “MFNLQKRINGNNEDGRYLETRIAVRDKLLAQELQQLETALRDQKQKLWHLEVPSTSCLHELELTVTPQEGIYRGGKFRFKITVPPEYNNVPPVVKCLTKVWHPNINEDGSICLSILRQNSLDQYGWRPTRNLTDVVHGLVSLFNDLMDFNDALNIQAAQMWSQNRESFNHRVREYISRYC” as the sequence, how does the “soluble on expression in E. coli” value read?
The value was “soluble”.
